Laboratory results published in paper PMC10207099, “Nitrogen Fixation and Hydrogen Evolution by Sterically Encumbered Mo-Nitrogenase” (JACS Au, 2023).

Legend:
[1] = target: Strep-inhibited α-C45A/L158C MoFe protein (Azotobacter vinelandii) (UniProt P07328); assay: SEC; analytical gel filtration of MoFe protein pre-treated with 5 molar equivalents of L127Δ Fe protein
[2] = target: T1, NifK (ß subunit) of the MoFe protein (Azotobacter vinelandii, UniProt P07329 1-523); assay: native gel or EMSA; anoxic native-PAGE of the MoFe protein alone; conditions: both partners purified
T1 construct: Nitrogenase molybdenum-iron protein beta chain (NifK, ß subunit), Azotobacter vinelandii; The ß chain of m1 and m2, written alone; also called ß-subunit/NifK; source: A. vinelandii strain M1 (derivative of RS1), purified as part of the MoFe protein (HisTrap HP, Q-Sepharose)
T1 sequence: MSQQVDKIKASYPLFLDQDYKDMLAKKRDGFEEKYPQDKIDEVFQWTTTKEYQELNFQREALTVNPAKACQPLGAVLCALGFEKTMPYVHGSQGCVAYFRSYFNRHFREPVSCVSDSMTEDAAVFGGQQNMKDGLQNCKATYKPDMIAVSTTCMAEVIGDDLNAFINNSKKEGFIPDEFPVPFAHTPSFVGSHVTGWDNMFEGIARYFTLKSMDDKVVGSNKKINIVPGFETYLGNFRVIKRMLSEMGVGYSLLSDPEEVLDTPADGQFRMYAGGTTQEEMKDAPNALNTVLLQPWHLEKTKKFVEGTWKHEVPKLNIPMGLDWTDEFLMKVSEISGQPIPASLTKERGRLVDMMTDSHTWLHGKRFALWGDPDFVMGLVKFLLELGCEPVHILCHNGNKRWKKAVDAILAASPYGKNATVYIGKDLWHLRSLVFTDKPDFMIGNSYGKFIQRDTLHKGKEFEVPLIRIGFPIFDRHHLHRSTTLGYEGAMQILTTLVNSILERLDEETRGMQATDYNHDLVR

L127Δ Fe protein (non-ATP-hydrolyzing NifH2 mutant) (enzyme)
percent of the broadened MoFe peak that is MoFe:Fe1 complex (multi-Gaussian peak analysis) [1]: 68%

B1: NifD (α subunit) of the Strep-inhibited α-C45A/L158C MoFe protein (natural protein, Azotobacter vinelandii)
chain: GMSREEVESLIQEVLEVYPEKARKDRNKHLAVNDPAVTQSKKAIISNKKSQPGLMTIRGCAYAGSKGVVWGPIKDMIHISHGPVGCGQYSRAGRRNYYIGTTGVNAFVTMNFTSDFQEKDIVFGGDKKLAKLIDEVETLFPLNKGISVQSECPIGCIGDDIESVSKVKGAELSKTIVPVRCEGFRGVSQSLGHHIANDAVRDWVLGKRDEDTTFASTPYDVAIIGDYNIGGDAWSSRILLEEMGLRCVAQWSGDGSISEIELTPKVKLNLVHCYRSMNYISRHMEEKYGIPWMEYNFFGPTKTIESLRAIAAKFDESIQKKCEEVIAKYKPEWEAVVAKYRPRLEGKRVMLYIGGLRPRHVIGAYEDLGMEVVGTGYEFAHNDDYDRTMKEMGDSTLLYDDVTGYEFEEFVKRIKPDLIGSGIKEKFIFQKMGIPFREMHSWDYSGPYHGFDGFAIFARDMDMTLNNPCWKKLQAPWEASEGAEKVAASA
peptide: GGGWSHPQFEK
modifications: C158 joined by thiol-maleimide Michael addition to the peptide maleimide-GGGWSHPQFEK | N-terminal maleimide, joined to C158 of the α subunit
notes: Nitrogenase molybdenum-iron protein alpha chain (NifD, α subunit), Azotobacter vinelandii; The α chain of m2, written alone; in the sample only part of the α subunits carry the peptide; also called Strep-modified α subunit
binding result [2]: binds
